Reference: patent US20040001839A1, “Multimers - isolated molecules comprising epitopes containing sulfated moieties, antibodies to such epitopes, and uses thereof” (priority 2000, published 2004)

Experiments:
[1] = target: T1, natural human platelet derived glycocalicin (Homo sapiens, UniProt P07359); assay: Western blot on natural platelet glycocalicin; format: binding; settings: semi-purified human platelet derived glycocalicin
T1 construct: glycocalicin (soluble, extracellular fragment of GPIbα); from tissue; host or cells: human platelets
Protocol: (§1) The DNA fragment encoding for glycocalicin (GC, amino acid 1 to amino acid 493 of GPIbα) was cloned into an IPTG inducible prokaryotic vector cassette. E. coli (BL21 DE3) cells harboring the newly constructed plasmid were grown at 37° C. to O.D. 0.7-0.8, than at 37° C. for 3 hours for in the presence of IPTG for induction.
(§2) SDS-polyacrylamide gel loaded either with semi-purified human platelet derived glycocalicin (“GC”) or with E. coli cell lysates (“total”) derived from induced and non-induced cells were analyzed. Western blot analysis was performed with biotinylated Y1-scFv, polyclonal rabbit anti-human glycocalicin antibody, commercially available mouse anti-human CD42 monoclonal antibody (SZ2 Immunotech, PM640 Serotec, HIP1 Pharmigen, AN51 DAKO), and polyclonal antibody against the N-terminus of GPIbα (Sc-7071, Santa Cruz).

Leukemia Cells = assay: FACS of leukemia samples: anti-CD162 versus Y1; format: binding, human; settings: 12 patient samples
Protocol: Analysis of binding of scFv Y1 antibodies and anti-CD162 antibodies to diseased cells also illustrates that scFv Y1 has binding characteristics different from those of anti-CD162 antibodies. […] (Table F). Y1 binds to the leukemic cells in 10 of 12 samples. In contrast, anti-CD162 bound only 5 out of 12 samples. […] Thus, it may be concluded that, in leukemic cells, scFv Y1 binds to a ligand other than that recognized by anti-CD162.
Samples provided from hospitals. Patients sample 30 μl/tube. Add 5 μl /tube of CD33-APC (for AML) or CD19-APC (for B-CLL) or CD38-APC (for Multiple Myeloma). Add 5 μl/tube of CD45-PerCp and 5 μl of scFv-Y1 or control scFv-N31 or CD162-PE (KPL1). Incubate tubes 30 minutes at 4° C. with low shaking. Wash by adding 2 ml PBS and spin 5 minutes at 1200 rpm. Discard supernatant.
For a one step assay continue with the lysis step:
Add 500 μl BD Lysine solution diluted 1:10 with ddH2O (300 μl to patient sample). Vortex at high speed and incubate 12 minutes at 4° C. Wash as above. Discard supernatant. And add 500 μl PBS. The samples are read in the FACS using blood sample acquisition setup according to international standards.
For two or more assays: working buffer is PBS+1% BSA+0.05% sodium azide. Incubations and wash as above.
Lysis of the red blood cells is the final step in the assay, followed by resuspension with 500 μl PBS.

[2] = target: T2, recombinant bacterial derived glycocalicin (Homo sapiens, UniProt P07359); assay: Western blot on E. coli recombinant glycocalicin; format: binding; settings: E. coli cell lysates, IPTG induced
T2 construct: glycocalicin (GC, amino acid 1 to amino acid 493 of GPIbα); made in house; host or cells: E. coli BL21 DE3, total cell lysate
Protocol: as §1, §2

[3] = system: RP-HPLC KG-1 membrane fraction; assay: Western blot with Y1 on SDS-PAGE reducing gels, KG-1 membrane fraction after enzyme treatment; format: binding, human; settings: O-Sialo glycoprotein endopeptidase, 30′ at 37° C.
Description: (§3) Y1 ligand was further characterized using enzymatic treatments with proteases, glycanases, and […]; Western blotting with Y1, anti-CD42 antibodies, anti-CD162 antibodies and 181, immunoprecipitation using Y1 and anti-CD162 antibodies; FACS analysis using Y1 anti-CD162 antibodies; and sequencing.
(§4) The table below summarizes the biochemical experiments preformed to characterize and localize the Y1 binding site on KG-1 cells.
(§5) The nitrocellulose membrane was blocked using 5% skim milk for one hour at room temperature. The membrane was then washed 3 times for 5 minutes each with 0.05% Tween 20 in PBS at room temperature. The membrane was incubated with 5 μg/ml Y1-biotin (or 181-biotin) in 2% skim milk in PBS for one hour at room temperature. The membrane was then washed 3 times for 5 minutes each with cold 0.05% Tween 20 in PBS in the cold room (about 4 to about 10° C.). The membrane was then incubated in the cold room with a 1:1000 dilution of SAV-HRP (streptavidin-HRP) (at a final concentration of […]) in 2% skim milk, 0.05% Tween. The dilution was carried out at room temperature (about 25° C.), then the diluted SAV-HRP was cooled on ice for 10-15 minutes before use. The incubation was carried out for 1 hour with gentle shaking. After the incubation with SAV-HRP, the membrane was washed, as above. […]

Heparin - BSA = assay: Western blot with Y1 on SDS-PAGE reducing gels, heparin-BSA after aryl-sulfatase; format: binding; settings: 18 hr at 22° C.
Description: as §3, §4, §5

KG-1 cells = assay: Binding competition experiments on KG-1 cells (monomer, dimer, Y1 IgG); set-up: species or system human
Description: To compare the binding of the scFv monomer (also referred to as CONY1) with the Y1 dimer, binding competition experiments were done in vitro on KG-1 cells. In addition, these experiments also compared the binding of the full Y1 IgG to the scFv Y1 monomers. To perform this study, a Y1 IgG was labeled with biotin.

washed platelets = assay: Ristocetin-induced agglutination of washed platelets (scFv); format: cell-based, human; settings: for % agglutination: 100% = ristocetin treatment; for % inhibition: ristocetin-induced agglutination
Protocol: Aggregation is determined in PRP due to the presence of thrombotic agents, while agglutination is determined in washed platelets. The effect of Y1 (scFv) on agglutination of washed platelets was tested at various concentrations of Y1. Platelets were pre-incubated with Y1 scFv, Y17 scFv, Y16-scFv, or a control TM-1 scFv for 4 min at 37° C. before being exposed to ristocetin, an inducer of platelet agglutination and aggregation.
Platelet concentrate in acid-citrate-dextrose (ACD) was obtained from a blood bank, platelets were isolated, washed once in buffer containing ACD and saline in a ratio of 1:7. The platelets were centrifuged at 800 g for 10 min after each wash and were resuspended in Tyrodes solution (2 mM MgCl2, 137 mM NaCl, 2.68 mM KCl, 3 mM NaH2PO4, 0.1% glucose, 5 mM Hepes and 0.35% albumin, pH 7.35) and count the number of cells.
For platelet aggregation studies, platelet rich plasma (PRP) and washed platelets were stirred at 500 rpm at 37° C. in whole blood Lumiaggregometer (Chronolog, Havertown, Pa.). The difference in light transmission through the platelet suspension and suspending medium was taken as 100% aggregation. The effect of Y1 on platelet aggregation was evaluated by addition of different concentration of Y1 before the addition of agonist, and the effect was recorded for four minutes.
The effect of Y17-scFv on vWF-dependent agglutination of platelets was tested at different concentrations of Y17.

B1: Y1 scFv: fully human scFv clone binding platelets and AML cells; SEQ ID NO:25, heavy chain CDR3 SEQ ID NO:8 (protein, listed as Homo sapiens)
scFv: MKYLLPTAAAGLLLLAAQPAMAEVQLVESGGGVVRPGGSLRLSCAASGFTFDDYGMSWVRQAPGKGLEWVSGINWNGGSTGYADSVKGRFTISRDNAKNSLYLQMNSLRAEDTAVYYCARMRAPVIWGQGTLVTVSRGGGGSGGGGSGGGGSSELTQDPAVSVALGQTVRITCQGDSLRSYYASWYQQKPGQAPVLVIYGKNNRPSGIPDRFSGSSSGNTASLTITGAQAEDEADYYCNSRDSSGNHVVFGGGTKLTVLGAAAEQKLISEEDLNGAA
recognition in Western blot [1]: recognized
samples in which the antibody binds the leukemic cells (Leukemia Cells): 10 of 12
recognition in Western blot [2]: did not recognize
Reactivity with Y1 [3]: Reactivity
Reactivity with Y1 (Heparin - BSA): Binds to
amount bound to KG-1 cells to the same extent (KG-1 cells; FITC-labeled, without serum): 1 µg
competition with Y1 IgG-Biotin for binding to KG-1 cells (KG-1 cells; Y1 IgG-Biotin 50 ng, Y1 scFvs 5 μg and 10 μg): partially competed
% agglutination (washed platelets; scFv 4 μg/ml): 92%
% inhibition (washed platelets; scFv 4 μg/ml): 8%
% inhibition (washed platelets; scFv 4 μg/ml, listed as Y1): No inhibition
% agglutination (washed platelets; scFv 12.5 μg/ml): 67%
% inhibition (washed platelets; scFv 12.5 μg/ml): 33%
% inhibition (washed platelets; scFv 12.5 μg/ml, listed as Y1): only partial inhibition
% agglutination (washed platelets; scFv 25 μg/ml): 23%
